Experimental data as given in patent publication US20250019422A1 (MAX PLANCK GESELLSCHAFT ZUR F RDERUNG DER WISSENSCHAFTEN E V, published 2025).

B1: Re5D06 (VHH)
VHH: QVQLVESGGGLVQPGGSLRLSCAASGITLDYYAIGWFRQAPGKEREGVSRIRSSDGSTNYADSVKGRFTMSRDNAKNTVYLQMNSLKPEDTAVYYCAYGPLTKYGSSWYWPYEYDYWGQGTQVTVSS
B2: Re6H06 (VHH)
VHH: QVQLVESGGGLVQPGGSLRLSCAASGVTLDYYAIGWFRQAPGKEREGVSCTSSSDGSTYYADSVKGRFTISRDNAKNTVYLQMNSLKPEDTGVYYCAVVPQTYYGGKYYSQCTANGMDYWGKGTLVTVSS
B3: Re32D03 (VHH)
VHH: QVQLVESGGGLVQPGGSLRLSCAISGITLDYYAVGWFLQAPGKEREGISCMRNWDGRTVYAPSVKGRFTISSDNAKKMVYLEMDNLKSEDTGVYYCAAGPLPPGISCRIPTPLGYDDWGQGTQVTVSS
B4: Re5D06R15 (VHH)
VHH: QVQLVESGGGLVQPGGSLRLSCAASGITLDYYAMGWFREAPGKEREGVARIRNSDGSTNYADSVKGRFTMSRDNAKDTYYLQMNSLEPEDTADYYCAYGPLTKYGSSWYWPYEYDYWGQGTQVTVSS
B5: Re9B09 (VHH)
VHH: QVQLVESGGGLVQPGGSLRLSCAASGFTLDYYAIGWFRQAPGKEREGVSRISSSDGSTDYADSVKGRFTISRDNAKNTVYLQMNSLKPEDTAVYYCATVPGTYYSGNWYYTWHPEAVDYWGKGTQVTVSS
notes: also called ReB09
B6: Ma2E06 (VHH)
VHH: QVQLVESGGDLVQPRGSLRLSCAASGITLDYYAIGWFRQAPGKEREGVSYISNTNDKTDYADSVKGRFTISRDNAENTVFLQMNSLQPEDTAVYYCATVPGTYYGGRWYYTWHPEAVRYWGKGTQVTVSS
notes: also called Ma02E06
B7: Re31A08 (VHH)
VHH: QVQLVESGGGLVQPGGSLRLSCAASGITLDYYSIGWFRQAPGKEREGVSCTSSRDDSTDYADSVKGRFTISRDNAKNSVYLQMNSLNPEDTAVYYCALTPATYYSGRYYFQCPPHGMDYWGKGTLVTVSS
B8: Re31A12 (VHH)
VHH: QVQLVESGGGLVQSGGSLRLSCLTSGVTLDYYAIGWFRQAPGKEREGVSCTSSSDGSTNYSDSVKGRFIISRDNAKNTVYLQMNSLKPEDTAVYYCAVTPATYYGGRYYFQCPYHDMHYWGKGTLVTVSS
B9: Re32C08 (VHH)
VHH: QVQLVESGGGLVQPGGSLRLSCETSGITLDYYAIGWFLQAPGKEREGVACMRNWDGSTVYAPSVKGRFTISRDNDKKAAYLEMNSLKSEDTGVYYCAAGPLPPGHSCRIPTPLGYDDWGQGTQVTVSS
B10: Ma6F06 (VHH)
VHH: QVQLVESGGGLVQPGGSLRLSCATSGITLDYYAIGWFLQVPGKEREGVACMRNWDGSTLYAPSVKGRFTISRDADKEVAYLEMNSLKSEDTGVYYCAAGPLPPGHSCRIPTPLGYDDWGQGTQVTVSS
B11: Re32A10 (VHH)
VHH: QVQLVESGGGLVQPGGSLRLSCATSGITLDYYAIGWFLQAPGKEREGVSCMRSSDGSTVYAPSVKGRFTISRDNAKKMVYLEMNSLKSEDTGVYYCAAGPLPPGTSCRIPTPLGYDDWGQGTQVTVSS
B12: Re32B02 (VHH)
VHH: QVQLVESGGGLVQPGGSLRLSCATSGITLDYYAIGWFLQAPGKEREGVSCMRSSDGSTVYAPSVKGRFTISRDNAKKMVYLEMNSLKSEDTGVYYCAAGPLPPGTSCRIPTPLGYDDWGQGTQVTVSS
B13: Re32E06 (VHH)
VHH: QVQLVESGGGLVQPGGSLRLSCETSGITLDYYAIGWFLQAPGKEREGVACMRNWDGSTLYAPSVKGRFTISRDNDKKAVYLEMNSLKSEDTGVYYCAAGPLPPGHSCRIPTPLGYDDWGQGTQVTVSS
B14: Re32G01 (VHH)
VHH: QVQLVESGGGLVQPGGSLRLSCETSGITLDYYAIGWFLQAPGKDREGVACMRNWDGSTLYAPSVKGRFTISRDADKEVAYLEMNSLKSEDTGVYYCAAGPLPPGHSCRIPTPLGYDDWGQGTQVTVSS
B15: Re32F02 (VHH)
VHH: QVQLVESGGGLVSPGGSLKLSCAASGLTLDYYGIGWFRQVPGKEREGVSCLGVPDNRTLYAPSVKGRFTISRDNAKNTYYLEMNSLNPEDSAVYYCAAGPVVPGHMCRIPTPLGYDYWGQGTLVTVSS

These binders were tested against T1, wt_RBD-AviHis (SARS-CoV-2 (original Wuhan strain)) (assay: BLI: biotinylated wild type RBD immobilised, VHH in solution, mass transport fit).

Binder	Kd [nM]
B1	≤ 0.01
B2	≤ 0.01

What follows are binders tested against T1, wt_RBD-AviHis (assay: BLI (Octet), biotinylated RBD on streptavidin biosensors, VHH in solution).

Binder	Kd [nM]
B3	≤ 0.01
B4	≤ 0.01
B2	≤ 0.01
B5	≤ 0.01
B6	0.04
B7	0.06
B8	0.12
B9	≤ 0.01
B10	≤ 0.01
B11	0.004
B12	≤ 0.01
B13	≤ 0.01
B14	0.016
B15	≤ 0.01

Biological target: T1, wt_RBD-AviHis
Assay: BLI: biotinylated wild type RBD immobilised, VHH in solution, mass transport fit
Remark: another data set of the same source

Binder	Kd [nM]
B3	≤ 0.01
B5	0.03
